Target: SHP2 N-terminal SH2 domain, T42A (human)
Experiment: fluorescence polarisation

Substance: fluorescent phosphopeptide derived from pTyr1179 of insulin receptor substrate 1 (IRS-1)
- fold tighter binding against N-SH2 WT: 5 fold

Reference: article PMC11287265
